Biological target: tppc9_human TRAPPC9 (UniProt Q96Q05)
Sequence (Q96Q05 whole entry): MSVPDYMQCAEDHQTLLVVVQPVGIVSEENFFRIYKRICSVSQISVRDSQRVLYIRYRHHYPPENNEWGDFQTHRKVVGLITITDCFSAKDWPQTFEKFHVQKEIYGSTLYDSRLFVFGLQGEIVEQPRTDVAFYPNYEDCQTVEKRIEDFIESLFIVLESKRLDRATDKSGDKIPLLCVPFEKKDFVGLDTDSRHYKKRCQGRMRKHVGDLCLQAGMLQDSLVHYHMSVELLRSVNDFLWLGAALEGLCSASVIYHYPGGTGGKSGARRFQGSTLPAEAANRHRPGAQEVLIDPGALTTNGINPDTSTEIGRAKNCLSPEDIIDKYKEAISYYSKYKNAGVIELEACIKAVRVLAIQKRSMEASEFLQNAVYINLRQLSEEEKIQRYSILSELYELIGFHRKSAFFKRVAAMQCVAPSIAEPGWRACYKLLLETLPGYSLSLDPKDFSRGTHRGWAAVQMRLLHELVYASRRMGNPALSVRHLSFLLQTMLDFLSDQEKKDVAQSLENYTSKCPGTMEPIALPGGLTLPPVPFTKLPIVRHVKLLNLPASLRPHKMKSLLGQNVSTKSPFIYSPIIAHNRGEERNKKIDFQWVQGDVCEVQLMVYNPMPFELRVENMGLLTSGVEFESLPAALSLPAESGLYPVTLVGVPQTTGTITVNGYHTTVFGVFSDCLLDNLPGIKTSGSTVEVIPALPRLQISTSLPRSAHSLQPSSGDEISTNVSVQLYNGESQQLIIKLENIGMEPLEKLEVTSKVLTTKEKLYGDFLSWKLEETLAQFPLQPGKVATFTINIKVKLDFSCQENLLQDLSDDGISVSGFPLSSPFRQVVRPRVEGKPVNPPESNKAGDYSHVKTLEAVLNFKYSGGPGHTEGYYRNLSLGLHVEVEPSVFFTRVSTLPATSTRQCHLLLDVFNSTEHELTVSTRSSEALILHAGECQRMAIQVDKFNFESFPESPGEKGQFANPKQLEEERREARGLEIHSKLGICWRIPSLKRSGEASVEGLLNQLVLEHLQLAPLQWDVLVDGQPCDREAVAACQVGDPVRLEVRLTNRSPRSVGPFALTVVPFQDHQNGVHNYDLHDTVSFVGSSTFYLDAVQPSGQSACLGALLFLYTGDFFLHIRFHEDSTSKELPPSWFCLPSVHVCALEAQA

effect of a mutation on the interaction: decreasing interaction strength
Substance: Trafficking protein particle complex subunit 2 (Mus musculus) (from UniProt Q9CQP2) D47Y

Source: IntAct's records for PubMed 21858081
